The values below come from patent US20250121075A1, “ALPHA-FETOPROTEIN BIOCONJUGATES FOR DISEASE TREATMENT” (priority 2021, published 2025).

The target in data set [1] is alpha-fetoprotein (AFP) receptor (AFPR) (human). The experiment in a line: AF-647 labeled rhAFP incubated with H522 cells at 37 C for 0.5, 2 and 5 h, plate reader fluorescence.
The target is the same in data set [2]. The experiment in a line: AF-647 labeled rhAFP incubated with MCF7 cells at 37 C for 0.5, 2 and 5 h, plate reader fluorescence.
Data set [3] shares this target. In words: AF-647 labeled rhAFP incubated with U-937 cells at 37 C for 0.5, 2 and 5 h, plate reader fluorescence.
The target is the same in data set [4]. In words: AF-647 labeled rhAFP incubated with MOLT-4 cells at 37 C for 0.5, 2 and 5 h, plate reader fluorescence.
For data set [5] the target is unchanged. In words: AF-647 labeled rhAFP incubated with SKOV-3 cells at 37 C for 0.5, 2 and 5 h, plate reader fluorescence.
The target is the same in data set [6]. The experiment in a line: AF-647 labeled rhAFP incubated with OVCAR-3 cells at 37 C for 0.5, 2 and 5 h, plate reader fluorescence.
For data set [7] the target is unchanged. The experiment in a line: AF-647 labeled rhAFP incubated with COLO 205 cells at 37 C for 0.5, 2 and 5 h, plate reader fluorescence.
Data set [8] relates to COLO-205 cells. The experiment in a line: CellTiter-Glo cell viability, 72 hours. In kind it is cell-based, human. As for the experimental part:
Turning to Table 5, two bioconjugates of each of AFP-ABZ982 and AFP-ABZ1827 (4 in total) were prepared at DPRs of approximately 4 (“low DPR”) and 6 (“high DPR”) for efficacy testing in vivo in the COLO-205 human tumor xenograft model. Potency in the COLO-205 cell line prior to implantation was assessed. Briefly, 96 well plates were seeded with COLO-205 cells either at 5,000 or 2,500 cells per well in a total volume to 50 μL per well. Plates were incubated overnight then treated with the bioconjugate at 37° C. for 72 hours and then a CellTiter-Glo assay was performed to measure cell viability. Samples were run in triplicate.
On the technique in general: Cellular ATP, detected with luciferase, serves as a proxy for viable cell number.

Data set [9] in a line: Maximum tolerated dose in healthy mice. In kind it is in vivo. The settings on record: Q1D×5 for 2 weeks, clinical observations and AST/ALT. As for the experimental part: The four ABZ981-containing bioconjugates above were resynthesized and formulated in a 10 mM HEPES buffer, 5% sucrose at pH 7.5 (Table 6). Prior to testing the efficacy in tumor-bearing mice, the maximum tolerated dose (MTD) was determined for each bioconjugate in healthy mice, employing the same dosing regimen used for the efficacy study (Q1D×5 for 2 weeks) at doses of 0, 5, 10, 20 and 40 mg/kg. MTD was based on clinical observations made daily during the dosing period and elevations of liver enzymes (AST/ALT) determined at the end of treatment. […] In general, a bioconjugate with a higher DPR which carries a larger amount of toxin would be expected to have a lower MTD.

The test system of data set [10] is COLO 205. The experiment in a line: Binding of AF-647 labeled rhAFP (ACT-101) to tumor cells. Also noted: species or system human. The settings on record: COLO 205, metastatic colorectal adenocarcinoma. As for the experimental part:
(§1) Prior to testing lead compounds in vitro, the expression of the AFP receptor and ability of cells to bind and take up fluorescently-labelled rhAFP was established in the U937 cell line as well as other cell lines, as in the study summarized in Table 1 below. In this study, rhAFP was labeled using the procedures described in the product protocol from commercially available Alexa Fluor-647 (AF-647) protein labeling kits. Binding experiments were performed in 96-well plates and fluorescence was measured using a plate reader. Tumor cells were cultured in suspension or plated in cell culture media. Each tumor cell line was incubated with AF-647 labeled rhAFP at 37° C. for 0.5, 2 and 5 hours (n=3 replicates). Incubation was stopped by chilling on ice. For cells in suspension, cells and culture medium were collected separately by centrifugation and subjected to repeat wash steps. For plated cells, trypsin/EDTA was used for cell detachment.

In data set [11] the test system is H522. The data set is described as above. The settings on record: H522, non-small cell lung adenocarcinoma. Also noted: species or system human. As for the experimental part:
as §1

For data set [12], the system named is MCF7. The description is as above. The settings on record: MCF7, breast adenocarcinoma. Also noted: species or system human. As for the experimental part:
as §1

Data set [13] deals with MOLT-4. The description is as above. The settings on record: MOLT-4, acute lymphoblastic leukemia. Also noted: species or system human. As for the experimental part:
as §1

The subject of data set [14] is OVCAR-3. Described as above. On the set-up: species or system human. The settings on record: OVCAR-3, ovary adenocarcinoma; 37° C., 0.5, 2 and 5 hours. As for the experimental part: as §1
The test system of data set [15] is SKOV-3. The description is as above. On the set-up: species or system human. The settings on record: SKOV-3, ovary adenocarcinoma. As for the experimental part: as §1
Data set [16] concerns U-937. The data set is described as above. Also noted: species or system human. To be noted: U-937, histiocytic lymphoma. As for the experimental part: as §1
The test system of data set [17] is ovarian cancer organoids. The experiment in a line: Ovarian cancer organoids from two patients. The data set is classed as cell-based.
In data set [18] the test system is MCF-7. The experiment in a line: Cytotoxicity of bioconjugates of varying DPR (Series 1). The data set is classed as cell-based, human. As for the experimental part: (§2) A series of bioconjugates containing DM1, DM3, DM4 or ABZ981 synthesized under varying reaction conditions, resulting in different average DPRs. The cytotoxicity of these bioconjugates were evaluated in vitro in a panel of tumor cell lines (leukemia, breast, colorectal, ovarian and lung).

Data set [19] has as its system U937. Described as above. The data set is classed as cell-based, human. The settings on record: Series 1 bioconjugates. As for the experimental part: as §2
Data set [20] concerns COLO-205 colorectal cancer xenografts. The experiment in a line: COLO-205 colon carcinoma xenograft efficacy, daily dosing for 2 weeks. To be noted: dosed at MTD, FIG. 2. The data set is classed as in vivo, mice. As for the experimental part:
In the colon carcinoma xenograft model, 7 week old athymic male mice were implanted with 1×10^7 COLO-205 cells subcutaneously in the right flank. Mice with tumors of approximately 100 mm^3 to 200 mm^3 were randomized to receive control (vehicle) or one of the 4 bioconjugates (10 animals/group). Animals were treated daily for 2 weeks with 2 days of rest after 5 doses; tumor volume was assessed twice weekly for 60 days following implantation. FIGS. 2 and 3 reveal the valuable properties of the present bioconjugates in the COLO 205 human xenograft model of colon cancer as shown by this study.

Data set [21] deals with COLO-205. In words: Cytotoxicity of bioconjugates of varying DPR (Series 2). In kind it is cell-based, human. To be noted: Series 2 bioconjugates. As for the experimental part:
as §2

Data set [22] relates to NCl-H522. Described as above. The settings on record: Series 2 bioconjugates. In kind it is cell-based, human. As for the experimental part:
as §2

The test system of data set [23] is OV AR3. The data set is described as above. To be noted: Series 2 bioconjugates. In kind it is cell-based, human. As for the experimental part: as §2
In data set [24] the test system is SKOV-3. The description is as above. In kind it is cell-based, human. To be noted: Series 2 bioconjugates. As for the experimental part: as §2
For data set [25] the following is noted: 25 mg/kg single IV, COLO-205 tumor.
Procedure: Bioconjugates containing DM4, DM1 or ABZ981 were resynthesized at a DPR of approximately 4 (Table 3) for comparative testing in a pharmacokinetic/biodistribution (PK/BD) study in mice subcutaneously implanted with COLO-205 tumor xenografts.
The volumes of administration were adjusted to deliver the same amount of bioconjugate (25 mg/kg) to each group of animals as a single IV injection into the tail vein. Blood samples were taken at 0.25 and 1 hours post-injection and blood and tissue samples were taken at 4, 8 and 24 hours to evaluate the pharmacokinetics and biodistribution of the bioconjugates (n=3 per timepoint). A commercially available ELISA kit was used to measure AFP levels and levels of free maytansine and its metabolites were measured by LC/MS.

Changes are numbered by the printed parent chain.

B1: Mature [Asn233Gln]rhAFP(1-591), lacking glycosylation, produced in transgenic goats (ACT-101) (ligand)
chain: RTLHRNEYGIASILDSYQCTAEISLADLATIFFAQFVQEATYKEVSKMVKDALTAIEKPTGDEQSSGCLENQLPAFLEELCHEKEILEKYGHSDCCSQSEEGRHNCFLAHKKPTPASIPLFQVPEPVTSCEAYEEDRETFMNKFIYEIARRHPFLYAPTILLWAARYDKIIPSCCKAENAVECFQTKAATVTKELRESSLLNQHACAVMKNFGTRTFQAITVTKLSQKFTKVQFTEIQKLVLDVAHVHEHCCRGDVLDCLQDGEKIMSYICSQQDTLSNKITECCKLTTLERGQCIIHAENDEKPEGLSPNLNRFLGDRDFNQFSSGEKNIFLASFVHEYSRRHPQLAVSVILRVAKGYQELLEKCFQTENPLECQDKGEEELQKYIQESQALAKRSCGLFQKLGEYYLQNAFLVAYTKKAPQLTSSELMAITRKMAATAATCCQLSEDKLLACGEGAADIIIGHLCIRHEMTPVNPGVGQCCTSSYANRRPCFSSLVVDETYVPPAFSDDKFIFHKDLCQAQGVALQTMKQEFLINLVKQKPQITEEQLEAVIADFSGLLEKCCQGQEQEVCFAEEGQKLISKTRAALGV
modifications: fluorescent label, site not stated: Alexa Fluor-647 (Table 1), AlexaFluor488 (FIG. 1 competition), Alexa Fluor-488 or FITC (other studies)
B1: the Highest AFP binding over 5 h Period (ng/million cells) was 71.1 in [1]; 126 in [2]; 84.3 in data set [3]; 19 in data set [4]; 31.3 in data set [5]; 71 in data set [6]. The molecule also gave a Highest AFP binding over 5 h Period (ng/million cells) in data set [7] of 75.

B2: AFP-ABZ1827 low DPR: AFP-ABZ1827 bioconjugate, average DPR 3.92 (conjugate, UniProt P02771 19-609, looked up)
Alpha-fetoprotein: B1 chain with Q233N
modifications: ABZ1827 toxin conjugate, DPR 3.92
Regarding B2, the midpoint of inhibition in data set [8], the IC50, lay at 17.2 nM. In addition, in [9], the “Dose (MTD)” value is on record as 10 mg/kg.

B3: ACT-101 (protein)
chain: B1 chain
For B3, the “Highest AFP binding over 5 h Period” value is listed as 75.0 ng/million cells in data set [10]; 71.1 ng/million cells in [11]; 126 ng/million cells in [12]; 19.0 ng/million cells in data set [13]; 71.0 ng/million cells in data set [14]; 31.3 ng/million cells in data set [15]. Further, the “Highest AFP binding over 5 h Period” value in [16] came to 84.3 ng/million cells. The “binding and uptake of fluorescently labeled protein by organoids” value in data set [17] was “bound to and was rapidly taken up”. Further, the “apoptosis, AnnexinV staining” value in data set [17] (by 72 hr, even at low concentrations) is given as “innocuous to the cells”.

B4: AFP-ABZ982 low DPR: AFP-ABZ982 bioconjugate, average DPR 3.74 (conjugate, UniProt P02771 19-609, looked up)
Alpha-fetoprotein: B1 chain with Q233N
modifications: ABZ982 toxin conjugate, DPR 3.74
The molecule B4 gave an IC50 in [8] of 12.9 nM. The “Dose (MTD)” value in data set [9] is reported as 20 mg/kg.

B5: HM023-2: Series 1 AFP bioconjugate, toxin printed DME (DM3), DPR 4.8 (conjugate, UniProt P02771 19-609, looked up)
Alpha-fetoprotein: B1 chain with Q233N
modifications: DM3 maytansinoid toxin conjugate, DPR 4.8
Turning to B5, in [18] (MCF-7, Series 1), the “potency lower than ABZ981 and DM4 conjugates” value is reported as “approximately 3 fold”. In addition, the IC50 in data set [18] (Series 1 bioconjugates) amounted to 4.62 nM; in data set [19], 1.6 nM.

B6: AFP-ABZ982 high DPR: AFP-ABZ982 bioconjugate, average DPR 5.81 (conjugate, UniProt P02771 19-609, looked up)
Alpha-fetoprotein: B1 chain with Q233N
modifications: ABZ982 toxin conjugate, DPR 5.81
Take B6: the IC50 in data set [8] is 4.1 nM. In addition, the “Dose (MTD)” value in [9] amounted to 10 mg/kg.

B7: AFP-ABZ1827: AFP linked via mono-methylated disulfide linker to ABZ-981, mixture of n 1-11 (conjugate)
chain: B1 chain
modifications: non-natural residues
Take B7: the “effect on the growth of the COLO-205 tumors” value in data set [20] was “dramatic, inhibitory effect”.

B8: AH00-3D: Series 2 AFP bioconjugate, toxin printed DME (DM3), DPR 4 (conjugate, UniProt P02771 19-609, looked up)
Alpha-fetoprotein: B1 chain with Q233N
modifications: DM3 maytansinoid toxin conjugate, DPR 4
For B8, the 50% inhibitory concentration (IC50) amounted to 10.7 nM in data set [21], 21.9 nM in data set [22], 5.47 nM in data set [23] and 22.8 nM in [24].

B9: AFP-ABZ982: AFP linked via di-methylated disulfide linker to ABZ-981, mixture of n 1-11 (conjugate)
chain: B1 chain
modifications: non-natural residues
Turning to B9, in data set [20], the “effect on the growth of the COLO-205 tumors” value is “dramatic, inhibitory effect”.

B10: AFP-ABZ981 conjugate: AFP bioconjugate releasing ABZ981, DPR 4.0, tested in the PK/BD study (conjugate, UniProt P02771 19-609, looked up)
Alpha-fetoprotein: B1 chain with Q233N
modifications: ABZ981-releasing toxin conjugate, DPR 4.0
For the molecule B10, in [25], the “Peak free toxin levels normalized to AFP (toxin release in tumors)” value was 18 % of the AFP levels in tumor; the “toxin level in tumor (free maytansine plus metabolites), times higher than DM1 conjugate” value is given as “approximately 3 times”; the “toxin level in tumor (free maytansine plus metabolites), times higher than DM4 conjugate” value is recorded as ~22 times.

In general, IC50 refers to the midpoint of a concentration-inhibition curve.
